Measured values published in PMC4505822.

Target: wild-type full-length recombinant human prion protein (human) (UniProt P04156)
Assay: AFM height measurement with a calibration curve of marker proteins

“wild-type full-length recombinant human prion protein (from UniProt P04156 23-231) (natural protein)” was tested. Which stoichiometry N did it give?
Its stoichiometry N is 11 to 22 monomers.
